Experiments:
[1] = system: Cc1cc(=O)oc2cc(NC(=O)[C@H](CCCNC(=N)N)NC(=O)[C@H](Cc3ccccc3)NC(=O)OCc3ccccc3)ccc12; experiment: purified protein; conditions: 4 mM DTT, 10 mM EDTA
[2] = system: Cc1cc(=O)oc2cc(NC(=O)[C@H](CCCNC(=N)N)NC(=O)[C@H](CCCNC(=N)N)NC(=O)OCc3ccccc3)ccc12; experiment: purified protein; conditions: 4 mM DTT, 10 mM EDTA
[3] = pH 5.5, 37°C, sodium acetate buffer
[4] = pH 6, 37°C, sodium phosphate buffer, pre-activated 120 min at pH 5.5
[5] = pH 5.5, 37°C, sodium acetate buffer, pre-activated 120 min at pH 5.5, pH 5.5
[6] = pH 6, 37°C, sodium phosphate buffer

CP14019 (Giardia lamblia ATCC 50803)
Km [1, 3]: 3.17 ± 0.34 µM | kcat/Km [1, 3]: 179000 to 237000 M⁻¹ s⁻¹ | Km [2, 3]: 5.11 ± 1.11 µM | kcat/Km [2, 3]: 5410 to 9840 M⁻¹ s⁻¹

CP16160 (Giardia lamblia ATCC 50803)
Km [1, 4]: 9.40 ± 1.46 µM | kcat/Km [1, 4]: 43000 to 67700 M⁻¹ s⁻¹ | Km [2, 5]: 5.60 ± 1.00 µM | kcat/Km [2, 5]: 58600 to 96100 M⁻¹ s⁻¹

CP16779 (Giardia lamblia ATCC 50803)
Km [1, 6]: 0.96 ± 0.24 µM | kcat/Km [1, 6]: 1.02e+06 to 2.06e+06 M⁻¹ s⁻¹ | Km [2, 6]: 5.40 ± 0.75 µM | kcat/Km [2, 6]: 10500 to 14800 M⁻¹ s⁻¹
